Data as given in patent publication US20040146519A1 (published 2004).

These binders were tested against HLA-DRB1*0301 (human) (assay: competition with 125I probe peptide, purified HLA).
RLQLSNDNRTLTLLS [CEA.368] gave an IC50 of 938 nM.

Each binder was assayed against HLA-A*0203 (human) (assay: inhibition of 125I probe peptide, purified HLA).
With ILIGVLVGV [CEA.691.L2] the IC50 was 3.2 nM.

Each binder was assayed against HLA-A*0201 (human) (assay: inhibition of 125I probe peptide, purified HLA).
With ILIGVLVGV [CEA.691.L2] the IC50 was 22 nM.

The binders below were run against HLA-A*0202 (human) (assay: inhibition of 125I probe peptide, purified HLA).
Work on QLIGYVIGV [CEA.78.L2V9] yielded an IC50 of 5.9 nM.

These binders were tested against HLA-A*0301 (human) (assay: competition with 125I probe peptide for purified HLA).
For TVSPSYTYYR [CEA.419.V2], the IC50 was 2340 nM.

These binders were tested against HLA-A*6801 (human) in the same assay as above.
For RVLTLLSVTK [CEA.376.V2K10], the IC50 was 5710 nM. For TVSPSYTYYK [CEA.419.V2K10], the IC50 was 6.7 nM. RVLTLFNVTK [CEA.554.V42K10] showed an IC50 of 2350 nM.

Each binder was assayed against HLA-A*1101 (human) in the same assay as above.
In the case of TVSPSYTYYR [CEA.419.V2], the IC50 is reported as 3000 nM. In the case of TVSPSYTYYK [CEA.419.V2K10], the IC50 is reported as 43 nM. In the case of RVLTLFNVTK [CEA.554.V42K10], the IC50 is reported as 32 nM.

These binders were tested against HLA-A*3301 (human) in the same assay as above.
For TVSPSYTYYR [CEA.419.V2], the IC50 was 264 nM.

These binders were tested against HLA-A*3101 (human) in the same assay as above.
Binder RVLTLLSVTK [CEA.376.V2K10] has an IC50 of 164 nM. Work on TVSPSYTYYK [CEA.419.V2K10] yielded an IC50 of 3670 nM. RVLTLFNVTK [CEA.554.V42K10] gave an IC50 of 234 nM.

Each binder was assayed against HLA-B*5101 (human) (assay: inhibition of 125I probe peptide, purified HLA).
Binder FPSAPPHRI [CEA.3.F1I9] has an IC50 of 15 nM. FPPHRWCIPI [CEA.6.F1I10] gave an IC50 of 423 nM. In the case of FPWQRLLL [CEA.13.F1, 8 AA], the IC50 is reported as 229 nM. Work on FPQHLFGI [CEA.58.F1, 8 AA] yielded an IC50 of 212 nM. In the case of FPQHLFGYSI [CEA.58.F1I10], the IC50 is reported as 204 nM. Binder FPAYSGREI [CEA.92.F1] has an IC50 of 183 nM. FPDAPTISPL [CEA.236.F1] showed an IC50 of 290 nM. Binder FPVSPRLQL [CEA.363.F1] has an IC50 of 82 nM. FPQQHTQVL [CEA.632.F1, 9 AA] gave an IC50 of 183 nM. For FPNNNGTI [CEA.646.F1], the IC50 was 19 nM. Work on FPGLSAGI [CEA.680.F1I8] yielded an IC50 of 9 nM.

Each binder was assayed against HLA-B*5401 (human) (assay: inhibition of 125I probe peptide, purified HLA).
For FPSAPPHRI [CEA.3.F1I9], the IC50 was 14 nM. FPHRWCIPI [CEA.7.F1I9] was tested, and the IC50 was 1.9 nM. With FPWQRLLL [CEA.13.F1, 8 AA] the IC50 was 71 nM. FPWQRLLLTI [CEA.13.F1I10] gave an IC50 of 4.2 nM. Work on FPQHLFGI [CEA.58.F1, 8 AA] yielded an IC50 of 0.4 nM. For FPDAPTISPI [CEA.236.F1I10], the IC50 was 278 nM. Binder FPDAPTISPL [CEA.236.F1] has an IC50 of 714 nM. Binder FPGVNLSL [CEA.428.F1] has an IC50 of 115 nM. FPQQHTQVI [CEA.632.F1I9] gave an IC50 of 1.7 nM. In the case of FPQQHTQVLF [CEA.632.F1, 10 AA], the IC50 is reported as 556 nM. In the case of FPQQHTQVLI [CEA.632.F1I10], the IC50 is reported as 278 nM. With FPNNNGTI [CEA.646.F1] the IC50 was 313 nM. Work on FPGLSAGATI [CEA.680.F1, 10 AA] yielded an IC50 of 105 nM.

The binders below were run against HLA-B*5301 (human) (assay: inhibition of 125I probe peptide, purified HLA).
In the case of FPSAPPHRI [CEA.3.F1I9], the IC50 is reported as 258 nM. Work on FPPHRWCIPI [CEA.6.F1I10] yielded an IC50 of 8460 nM. FPHRWCIPI [CEA.7.F1I9] showed an IC50 of 135 nM. For FPWQRLLL [CEA.13.F1, 8 AA], the IC50 was 443 nM. Work on FPWQRLLLTI [CEA.13.F1I10] yielded an IC50 of 78 nM. Work on FPQHLFGI [CEA.58.F1, 8 AA] yielded an IC50 of 1070 nM. In the case of FPAYSGREI [CEA.92.F1], the IC50 is reported as 664 nM. FPDAPTISPI [CEA.236.F1I10] showed an IC50 of 1020 nM. For FPDAPTISPL [CEA.236.F1], the IC50 was 1940 nM. FPVSPRLQI [CEA.363.F1I9] was tested, and the IC50 was 216 nM. In the case of FPVSPRLQL [CEA.363.F1], the IC50 is reported as 310 nM. For FPGVNLSL [CEA.428.F1], the IC50 was 95 nM. FPQQHTQI [CEA.632.F1, 8 AA] showed an IC50 of 7750 nM. FPQQHTQVL [CEA.632.F1, 9 AA] was tested, and the IC50 was 93 nM. With FPNNNGTI [CEA.646.F1] the IC50 was 9300 nM. FPGLSAGI [CEA.680.F1I8] showed an IC50 of 332 nM. Binder FPGLSAGATI [CEA.680.F1, 10 AA] has an IC50 of 1480 nM.

The binders below were run against HLA-B*3501 (human) (assay: inhibition of 125I probe peptide, purified HLA).
With FPSAPPHRI [CEA.3.F1I9] the IC50 was 3600 nM. For FPHRWCIPI [CEA.7.F1I9], the IC50 was 257 nM. FPWQRLLL [CEA.13.F1, 8 AA] gave an IC50 of 1760 nM. With FPWQRLLLTI [CEA.13.F1I10] the IC50 was 2120 nM. Work on FPQHLFGYSI [CEA.58.F1I10] yielded an IC50 of 900 nM. With FPAYSGREI [CEA.92.F1] the IC50 was 7200 nM. Work on FPDAPTISPI [CEA.236.F1I10] yielded an IC50 of 1330 nM. For FPDAPTISPL [CEA.236.F1], the IC50 was 327 nM. FPVSPRLQI [CEA.363.F1I9] showed an IC50 of 5540 nM. Binder FPVSPRLQL [CEA.363.F1] has an IC50 of 600 nM. For FPGVNLSL [CEA.428.F1], the IC50 was 277 nM. FPQQHTQVI [CEA.632.F1I9] gave an IC50 of 139 nM. With FPQQHTQVLF [CEA.632.F1, 10 AA] the IC50 was 51 nM. Binder FPQQHTQVLI [CEA.632.F1I10] has an IC50 of 809 nM. With FPGLSAGI [CEA.680.F1I8] the IC50 was 758 nM.

These binders were tested against HLA-B*0702 (human) (assay: inhibition of 125I probe peptide, purified HLA).
FPHRWCIPI [CEA.7.F1I9] gave an IC50 of 2.5 nM. For FPWQRLLLTI [CEA.13.F1I10], the IC50 was 290 nM. With FPQHLFGI [CEA.58.F1, 8 AA] the IC50 was 393 nM. Work on FPQHLFGYSI [CEA.58.F1I10] yielded an IC50 of 229 nM. FPAYSGREI [CEA.92.F1] gave an IC50 of 2.1 nM. With FPDAPTISPI [CEA.236.F1I10] the IC50 was 183 nM. FPVSPRLQL [CEA.363.F1] gave an IC50 of 0.7 nM. FPGVNLSL [CEA.428.F1] showed an IC50 of 19 nM. Work on FPQQHTQI [CEA.632.F1, 8 AA] yielded an IC50 of 220 nM. With FPQQHTQVI [CEA.632.F1I9] the IC50 was 3.4 nM. FPQQHTQVL [CEA.632.F1, 9 AA] showed an IC50 of 0.9 nM. Work on FPQQHTQVLI [CEA.632.F1I10] yielded an IC50 of 134 nM. In the case of FPNNNGTI [CEA.646.F1], the IC50 is reported as 275 nM. Binder FPGLSAGATI [CEA.680.F1, 10 AA] has an IC50 of 212 nM.

Each binder was assayed against HLA-DRB1*0701 (human) (assay: inhibition of 125I probe peptide, purified HLA).
With LWWVNNQSLPVSPRL [CEA.177] the IC50 was 3.05 µM.

What follows are binders tested against HLA-A*0206 (human) (assay: competition with 125I probe peptide for purified HLA).
In the case of YLCGIQNSV [CEA.569L2], the IC50 is reported as 31 nM. With GIMIGVLVGV [CEA.690] the IC50 was 142 nM.

Each binder was assayed against HLA-A*6802 (human) in the same assay as above.
Binder YLCGIQNSV [CEA.569L2] has an IC50 of 3480 nM. With ALVGIMIGV [CEA.687L2] the IC50 was 102 nM. GIMIGVLVGV [CEA.690] was tested, and the IC50 was 500 nM. Work on IMIGVLVGVA [CEA.691 (10-mer IMIGVLVGVA)] yielded an IC50 of 1510 nM.

What follows are binders tested against HLA-A*0203 (human) in the same assay as above.
Binder ALVGIMIGV [CEA.687L2] has an IC50 of 31 nM. For GIMIGVLVGV [CEA.690], the IC50 was 31 nM. For ILIGVLVGV [CEA.691L2], the IC50 was 3.2 nM.

The binders below were run against HLA-A*0202 (human) in the same assay as above.
QLIGYVIGV [CEA.78L2V9] showed an IC50 of 5.9 nM. Binder GIMIGVLVGV [CEA.690] has an IC50 of 205 nM.

The binders below were run against HLA-A*0201 (human) in the same assay as above.
Binder GIMIGVLVGV [CEA.690] has an IC50 of 64 nM. ILIGVLVGV [CEA.691L2] showed an IC50 of 22 nM.

Target: HLA-DRB1*0301 (human)
Assay: competition with 125I probe peptide, purified HLA
Remark: another data set of the same source
RLQLSNDNRTLTLLS [CEA.368] showed an IC50 of 938 nM.

These binders were tested against HLA-DRB1*1302 (human) (assay: competition with 125I probe peptide, purified HLA).
Work on RLQLSNDNRTLTLLS [CEA.368] yielded an IC50 of 729 nM.
